# Assay results: paper PMC7065948
# Experiments:
# Experiment in all cases: peptide or protein array
# [1] = target: Tat SL8 epitope (Tat 28-35) (SIVmac239)
# [2] = target: TTPESANL (TL8) (SIVmac251 strains)
# [3] = target: PTPESANL (PL8) (SIVsm (isolated from sooty mangabeys) strains)
substance,measurement,setting,value
rhesus MHC class I Mamu-A1*001 complex (heavy chain with human β2 microglobulin) (from UniProt P61769 21-119),binding score,[1],8.33
same,fluorescence intensity above the median (sd above the median),[1],7.15
same,binding score,[2],8.72
same,binding score,[3],6.28
